Experiment: yeast display, Sf9 membrane polyspecificity reagent, FACS + sequencing; frameworks hold sequencing errors
How it was run: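 A nanobody's polyreactivity label depends on the gate it was sorted from. Yeast display cells were stained with 10% biotinylated, detergent-solubilized Sf9 membrane reagent for 1 hour at 4 °C, enriched on streptavidin microbeads and sorted by FACS. The low and high (top ~1%) gates were set on anti-HA fluorescence for expression and streptavidin fluorescence for reagent binding.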

| Sequence | polyreactivity (PSR sort gate) |
| --- | --- |
| QDQLVESGGGLVQAGGSLRLSCAPSGRTFRYNAMGWYIQAPVKERELVAAINWNCGSTYYADSVKGRFTISRDNAKNTVYLQMNSLKPEDTAVYYCNADFYHRYDWGQGTQVTVSS | high polyreactivity |
| QDQLVESGGGLVQAGGSLRLSCASSGSIITQYAMGWYRQAPGKERELVAAITSGGSPYADSVKGRFTISRDNAKNTVYLQMNSLKPEDTADYYCATPYSYRGVTFNYWGQGTQVTVSS | low polyreactivity |
| QDQLVESGGGLVQAGGSLRLSCASSGSTFNIYAMGWYRQAPGKERELVAAITSRGTSTYYADSVKGRFTISRDNAKNTVYLQMNSLKPEDTAVYYCAAEVSGNYYRYNYWGQGTQVTVSS | high polyreactivity |
| QDQLVESGGGLVQAGGSLRLSCASSVRTIYIYAMGWYRHPPGKESEFVASITGRGTRTYYADSVKGRFTISRDNAKNTVYLQMNSLTQEDTAVYYCNARGKVQSSYDEDYWGQGTQVTVSS | high polyreactivity |
| QDQLVESGGGLVQAGGSLRLSCDASGSIIQSYTMGWYRQAPGKERELVAAIDSGGSTYYADSVKGRFTISRDNAKNTVYLQMNSLKPEDTAVYYCAAEPDTYWYTYDYWGQGTQVTVSS | low polyreactivity |
| QDQLVESGGGLVQAGGSLRLSCDASGYIFQSNVLGWYRQAPGKERELVAAITVSGGSTYYADSVKGRFTISRDNAKNTVYLQMNSLKPEDTAVYYCAALVAHKGDYWGQGTQVTVSS | high polyreactivity |
| QDQLVESGGGLVQAGGSLRLSCSASGSIFRDKAMGWYRQAPGKERELVAAISIVGSTSYADSVKGRFTISRDNAKNTVYLQMNSLKPEDTAVYYCAADTFYSYYDMDYWGQGTQVTVSS | low polyreactivity |
| QDQLVESGGGLVQAGGSLRLSFAASGLTFRYYAMGWYRQAPGKERELVAAISSGGRTDYADSVKGRFTISRDNAKNTVYLQMNSLKPEDTAVYYCNARGRIRSYRQVRTYSAYNYWGQGTQVTVSS | high polyreactivity |
| QDQLVESGGGLVQAGGSLRLSFAASGNIFRYYAMGWYRQAPGKERELVAAISRSGGNTYYADSVKGRFTISRDNAKNTVYLQMNSLKTEDTAVYYCAVVLSTYSYADYDYWGQGTQVTLSS | high polyreactivity |
| QDQLVESGGGLVQAGGSLRLSGAASGRIFRTNAMGWSRQAPGKERELVAAISDSGADTSYADSVKGRFTISRDNAKQSVYLQMNSLKPEDTAVYYCNRGRVSYRYLKDYDYWGQGTQVTVSS | low polyreactivity |
| QDQLVESGGGLVQAGGSLRLSGAASGSTFGGNAMGWYRQAPGKERELVAAISSSGGSTYYADSVKGRFTISRDNAKYSVYLQMNRLKPEDTAVYYCAAMYHWTYDYWGQGTQVTVSS | low polyreactivity |
| QDQLVESGGGLVQAGGSLRLSSAASGRTFCYNTKGWYRQSPGKERELLAAINYSGGSTYYADSVKGRFTISRDNAKNTVYLQMNSLKPEDTAVYYWNAKPRWYVPYDYWGQGTQVNVSS | high polyreactivity |
| QDQLVESGGGLVQAGGSLRLTCAASGSTFNYYAMGWYRQAPGKERELVAAISRSGGRTYYADSVKGRFTISRDNAKTTVYLQMNSLKEEDTAVYYCAAQVLTTGGEGGYWGQGTQVTVSS | high polyreactivity |
| QDQLVESGGGLVQAGGSLSLICDASGRTFSTKFMGWYIQAAGKERQLVAAITTSSSRTYYADSVKGRFTISRDNANHTVYLLMNSLKPEDTAVYYCAARIHGSWSFDYWGQGTQVTLSS | low polyreactivity |
| QDQLVESGGGLVQAGGSLSLSCAASGRNFFHNAMGWYRQAPGKERELVASITSGDGTYYADSVKGRFTISRDNAKNTVYLQMNSMKPEDTEVYSCAAEPGSIAYYYTRVGLYYWGQGTQVTVSS | low polyreactivity |
| QDQLVESGGGLVQAGGSLSLSCAASGRTFTVYAMGWYRQAPGKERELVAAISGSSGSTDYADSVKGRFTISRDNAKNTVYLQMNSLKPEDTAVYYCAKASSATRYVQLRQDYDYWGQGTQVTVSS | low polyreactivity |

From the nanobody polyreactivity screen of Harvey et al. (2022)
